Experiments:
Experiment in all cases: initial rates, A340 decrease or fluorescence
Assay type in all cases: biochemical, [Clostridium] symbiosum
Conditions in all cases: 20 mM 2-oxoglutarate, 100 mM NH4Cl, 0.1 M potassium phosphate pH 7.0, 25 °C
[1] = tested on: T1, NC(=O)C1=CN([C@@H]2O[C@H](COP(=O)(O)OP(=O)(O)OC[C@H]3O[C@@H](n4cnc5c(N)ncnc54)[C@H](O)[C@@H]3O)[C@@H](O)[C@H]2O)C=CC1
T1 construct: full-length recombinant wild-type gdh in ptac85, expressed in E. coli, purified on Remazol Red Sepharose; no tag mentioned
Source text: (§1) initial rates, A340 decrease or fluorescence on Clostridium symbiosum NAD^+-specific GDH (CsGDH)

[2] = tested on: T2, NC(=O)C1=CN([C@@H]2O[C@H](COP(=O)(O)OP(=O)(O)OC[C@H]3O[C@@H](n4cnc5c(N)ncnc54)[C@H](OP(=O)(O)O)[C@@H]3O)[C@@H](O)[C@H]2O)C=CC1
T2 construct: full-length recombinant wild-type gdh in ptac85, expressed in E. coli, purified on Remazol Red Sepharose; no tag mentioned
Source text: as §1

[3] = substrate: NC(=O)C1=CN([C@@H]2O[C@H](COP(=O)(O)OP(=O)(O)OC[C@H]3O[C@@H](n4cnc5c(N)ncnc54)[C@H](O)[C@@H]3O)[C@@H](O)[C@H]2O)C=CC1
Source text: as §1

[4] = substrate: NC(=O)C1=CN([C@@H]2O[C@H](COP(=O)(O)OP(=O)(O)OC[C@H]3O[C@@H](n4cnc5c(N)ncnc54)[C@H](OP(=O)(O)O)[C@@H]3O)[C@@H](O)[C@H]2O)C=CC1
Source text: as §1

## Clostridium symbiosum NAD^+-specific GDH (CsGDH) ([Clostridium] symbiosum; D264K)
[1]
  Km: 23 ± 2 µM
  kcat: 80 ± 2.5 s⁻¹
  kcat/Km: 3.48e+06 M⁻¹ s⁻¹
[2]
  Km: 107 ± 20 µM
  kcat: 26.3 ± 0.35 s⁻¹
  kcat/Km: 246000 M⁻¹ s⁻¹

## Clostridium symbiosum NAD^+-specific GDH (CsGDH) ([Clostridium] symbiosum; A243G)
[1]
  Km: 25 ± 1 µM
  kcat: 65.1 ± 1.6 s⁻¹
  kcat/Km: 2.6e+06 M⁻¹ s⁻¹
[2]
  Km: 386 ± 50 µM
  kcat: 1.87 ± 0.01 s⁻¹
  kcat/Km: 4840 M⁻¹ s⁻¹

## Clostridium symbiosum NAD^+-specific GDH (CsGDH) ([Clostridium] symbiosum; F239S/P263S)
[1]
  Km: 35 ± 10 µM
  kcat: 105 ± 4 s⁻¹
  kcat/Km: 3e+06 M⁻¹ s⁻¹
[2]
  Km: 330 ± 20 µM
  kcat: 83.3 ± 3.5 s⁻¹
  kcat/Km: 252000 M⁻¹ s⁻¹

## Clostridium symbiosum NAD^+-specific GDH (CsGDH) ([Clostridium] symbiosum; F239S)
[1]
  Km: 40 ± 3 µM
  kcat: 139 ± 5 s⁻¹
  kcat/Km: 3.48e+06 M⁻¹ s⁻¹
[2]
  Km: 230 ± 50 µM
  kcat: 11.1 ± 0.21 s⁻¹
  kcat/Km: 48300 M⁻¹ s⁻¹

## Clostridium symbiosum NAD^+-specific GDH (CsGDH) ([Clostridium] symbiosum; P263S)
[1]
  Km: 47 ± 103 µM
  kcat: 160 ± 8 s⁻¹
  kcat/Km: 3.4e+06 M⁻¹ s⁻¹
[2]
  Km: 110 ± 10 µM
  kcat: 62.5 ± 1.6 s⁻¹
  kcat/Km: 568000 M⁻¹ s⁻¹

B1: Clostridium symbiosum NAD^+-specific GDH (CsGDH) ([Clostridium] symbiosum) (protein)
chain: SKYVDRVIAEVEKKYADEPEFVQTVEEVLSSLGPVVDAHPEYEEVALLERMVIPERVIEFRVPWEDDNGKVHVNTGYRVQFNGAIGPYKGGLRFAPSVNLSIMKFLGFEQAFKDSLTTLPMGGAKGGSDFDPNGKSDREVMRFCQAFMTELYRHIGPDIDVPAGDLGVGAREIGYMYGQYRKIVGGFYNGVLTGKARSFGGSLVRPEATGYGSVYYVEAVMKHENDTLVGKTVALAGFGNVAWGAAKKLAELGAKAVTLSGPDGYIYDPEGITTEEKINYMLEMRASGRNKVQDYADKFGVQFFPGEKPWGQKVDIIMPCATQNDVDLEQAKKIVANNVKYYIEVANMPTTNEALRFLMQQPNMVVAPSKAVNAGGVLVSGFEMSQNSERLSWTAEEVDSKLHQVMTDIHDGSAAAAERYGLGYNLVAGANIVGFQKIADAMMAQGIAW
notes: full-length recombinant wild-type gdh in ptac85, expressed in E. coli, purified on Remazol Red Sepharose; no tag mentioned
[3]
  Km: 20 ± 1 µM
  kcat: 130.2 ± 3.1 s⁻¹
  kcat/Km: 6.5e+06 M⁻¹ s⁻¹
[4]
  Km: 90 ± 11 µM
  kcat: 2.87 ± 0.11 s⁻¹
  kcat/Km: 31900 M⁻¹ s⁻¹

From article PMC3157743, “An Examination by Site-Directed Mutagenesis of Putative Key Residues in the Determination of Coenzyme Specificity in Clostridial NAD^+-Dependent Glutamate Dehydrogenase” (Enzyme Research, 2011)
